Measured values from publication PMC3334378.

Molecular target: fibronectin (UniProt P02751)
Sequence of UniProt P02751 (P02751 32-2477): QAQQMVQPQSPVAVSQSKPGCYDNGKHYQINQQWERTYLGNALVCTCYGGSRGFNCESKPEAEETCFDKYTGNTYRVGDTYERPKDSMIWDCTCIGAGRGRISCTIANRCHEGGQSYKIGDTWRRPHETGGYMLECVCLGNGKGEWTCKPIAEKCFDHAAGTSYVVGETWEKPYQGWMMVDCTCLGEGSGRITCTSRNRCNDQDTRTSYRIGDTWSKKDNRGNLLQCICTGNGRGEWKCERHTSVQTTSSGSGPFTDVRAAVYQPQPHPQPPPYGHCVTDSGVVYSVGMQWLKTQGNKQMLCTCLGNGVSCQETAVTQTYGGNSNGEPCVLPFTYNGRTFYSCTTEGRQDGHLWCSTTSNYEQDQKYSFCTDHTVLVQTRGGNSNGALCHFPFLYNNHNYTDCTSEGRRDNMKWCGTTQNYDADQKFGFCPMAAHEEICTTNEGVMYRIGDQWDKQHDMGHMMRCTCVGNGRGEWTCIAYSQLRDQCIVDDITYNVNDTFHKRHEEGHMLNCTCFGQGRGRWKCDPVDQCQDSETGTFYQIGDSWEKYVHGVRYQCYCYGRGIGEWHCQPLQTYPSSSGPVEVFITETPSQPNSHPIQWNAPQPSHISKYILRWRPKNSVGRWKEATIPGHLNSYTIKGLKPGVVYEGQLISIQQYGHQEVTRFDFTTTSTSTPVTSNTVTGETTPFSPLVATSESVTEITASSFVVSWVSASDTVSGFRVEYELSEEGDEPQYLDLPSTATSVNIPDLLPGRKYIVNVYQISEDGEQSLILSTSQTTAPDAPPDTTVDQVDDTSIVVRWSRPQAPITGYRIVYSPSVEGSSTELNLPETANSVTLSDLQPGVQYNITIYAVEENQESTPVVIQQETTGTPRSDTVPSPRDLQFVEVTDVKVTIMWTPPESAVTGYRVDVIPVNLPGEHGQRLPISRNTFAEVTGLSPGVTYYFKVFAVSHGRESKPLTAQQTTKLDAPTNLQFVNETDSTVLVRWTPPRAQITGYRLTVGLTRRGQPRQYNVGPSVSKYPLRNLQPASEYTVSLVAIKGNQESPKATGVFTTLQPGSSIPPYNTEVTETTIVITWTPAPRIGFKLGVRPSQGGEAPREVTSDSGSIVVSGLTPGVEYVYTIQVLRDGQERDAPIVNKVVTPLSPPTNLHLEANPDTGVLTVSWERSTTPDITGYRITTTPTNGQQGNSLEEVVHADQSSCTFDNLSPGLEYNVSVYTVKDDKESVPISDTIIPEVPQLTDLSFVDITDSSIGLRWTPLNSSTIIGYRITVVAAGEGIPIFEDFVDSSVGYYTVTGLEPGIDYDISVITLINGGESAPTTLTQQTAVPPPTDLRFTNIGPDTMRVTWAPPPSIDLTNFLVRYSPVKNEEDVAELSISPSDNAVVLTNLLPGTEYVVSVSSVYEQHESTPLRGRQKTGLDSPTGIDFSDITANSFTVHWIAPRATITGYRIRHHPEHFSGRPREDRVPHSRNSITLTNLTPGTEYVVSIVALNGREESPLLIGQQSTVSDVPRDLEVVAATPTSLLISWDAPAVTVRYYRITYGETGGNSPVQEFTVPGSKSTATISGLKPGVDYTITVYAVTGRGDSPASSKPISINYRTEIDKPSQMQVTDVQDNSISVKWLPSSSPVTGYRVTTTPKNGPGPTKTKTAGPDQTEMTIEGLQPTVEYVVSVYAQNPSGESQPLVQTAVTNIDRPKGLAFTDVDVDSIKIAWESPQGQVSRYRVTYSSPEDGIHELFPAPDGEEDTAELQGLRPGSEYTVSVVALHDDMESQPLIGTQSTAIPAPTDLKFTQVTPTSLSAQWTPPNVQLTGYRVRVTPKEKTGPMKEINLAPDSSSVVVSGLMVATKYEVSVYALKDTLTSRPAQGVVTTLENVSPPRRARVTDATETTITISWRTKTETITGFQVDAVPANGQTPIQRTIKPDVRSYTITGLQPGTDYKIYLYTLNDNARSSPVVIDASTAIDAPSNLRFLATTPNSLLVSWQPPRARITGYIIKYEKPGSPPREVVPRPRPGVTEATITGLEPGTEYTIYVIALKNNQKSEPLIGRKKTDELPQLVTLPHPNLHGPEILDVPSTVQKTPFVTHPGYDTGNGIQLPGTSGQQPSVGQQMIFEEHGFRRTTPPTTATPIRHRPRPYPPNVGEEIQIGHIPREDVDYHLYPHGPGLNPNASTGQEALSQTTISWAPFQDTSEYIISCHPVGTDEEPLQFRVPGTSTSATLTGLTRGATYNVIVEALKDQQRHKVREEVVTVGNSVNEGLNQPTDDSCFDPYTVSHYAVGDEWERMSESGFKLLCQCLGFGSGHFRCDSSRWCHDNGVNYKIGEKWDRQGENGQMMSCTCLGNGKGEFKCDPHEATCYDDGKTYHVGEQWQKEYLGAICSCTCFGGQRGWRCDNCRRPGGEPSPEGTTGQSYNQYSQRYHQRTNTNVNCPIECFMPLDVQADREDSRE

Sequence of β1-integrin (P49134 21-799): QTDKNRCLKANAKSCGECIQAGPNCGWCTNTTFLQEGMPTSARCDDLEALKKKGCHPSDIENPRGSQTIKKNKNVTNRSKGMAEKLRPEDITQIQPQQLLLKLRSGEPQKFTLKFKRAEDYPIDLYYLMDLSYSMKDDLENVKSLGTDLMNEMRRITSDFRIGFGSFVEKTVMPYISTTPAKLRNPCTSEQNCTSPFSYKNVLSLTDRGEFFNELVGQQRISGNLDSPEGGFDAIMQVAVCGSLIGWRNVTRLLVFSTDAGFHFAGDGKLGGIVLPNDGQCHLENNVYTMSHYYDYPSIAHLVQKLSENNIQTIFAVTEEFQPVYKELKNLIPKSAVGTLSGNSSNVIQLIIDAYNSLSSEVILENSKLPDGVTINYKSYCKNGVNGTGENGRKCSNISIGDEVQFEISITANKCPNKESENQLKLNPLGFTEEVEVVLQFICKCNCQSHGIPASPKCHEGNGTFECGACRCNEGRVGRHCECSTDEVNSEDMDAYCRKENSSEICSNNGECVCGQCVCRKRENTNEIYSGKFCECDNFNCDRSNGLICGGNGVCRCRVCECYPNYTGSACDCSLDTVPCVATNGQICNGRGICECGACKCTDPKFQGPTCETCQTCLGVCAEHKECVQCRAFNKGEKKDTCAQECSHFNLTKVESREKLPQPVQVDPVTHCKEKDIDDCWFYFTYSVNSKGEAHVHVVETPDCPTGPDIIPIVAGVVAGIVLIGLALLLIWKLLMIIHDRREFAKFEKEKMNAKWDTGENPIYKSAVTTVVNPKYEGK

Substance: β1-integrin (from UniProt P49134 21-799) (receptor)
- inhibition of adhesion of 3Y1 cells to fibronectin-coated plates (60 min, 37°C) by β1-integrin blocking antibody (hamster anti-rat CD29, 50 µg/mL): 51%
- inhibition of adhesion of HR-3Y1-2 cells to fibronectin-coated plates (60 min, 37°C) by β1-integrin blocking antibody (hamster anti-rat CD29, 50 µg/mL): 57%
